{"source": "patent US20090010941A1", "about": "“Methods for treating HIV” (priority 2007, published 2009)", "molecules": {"B1": {"name": "TRAIL: soluble human recombinant TRAIL (TNF-related apoptosis-inducing ligand) obtained from Axxora LLC (protein, UniProt P50591 39-281, looked up)", "extracellular domain": "TNELKQMQDKYSKSGIACFLKEDDSYWDPNDEESMNSPCWQVKWQLRQLVRKMILRTSEETISTVQEKQQNISPLVRERGPQRVAAHITGTRGRSNTLSSPNSKNEKALGRKINSWESSRSGHSFLSNLHLRNGELVIHEKGFYYIYSQTYFRFQEEIKENTKNDKQMVQYIYKYTSYPDPILLMKSARNSCWSKDAEYGLYSIYQGGIFELKENDRIFVSVTNEHLIDMDHEASFFGAFLVG", "modifications": "extracellular domain", "notes": "soluble human recombinant TRAIL (TNF-related apoptosis-inducing ligand) obtained from Axxora LLC"}, "B2": {"name": "exogenous M-CSF: recombinant macrophage colony stimulating factor added to macrophage cultures (protein, UniProt P09603 33-554, looked up)", "Macrophage colony-stimulating …": "EEVSEYCSHMIGSGHLQSLQRLIDSQMETSCQITFEFVDQEQLKDPVCYLKKAFLLVQDIMEDTMRFRDNTPNAIAIVQLQELSLRLKSCFTKDYEEHDKACVRTFYETPLQLLEKVKNVFNETKNLLDKDWNIFSKNCNNSFAECSSQDVVTKPDCNCLYPKAIPSSDPASVSPHQPLAPSMAPVAGLTWEDSEGTEGSSLLPGEQPLHTVDPGSAKQRPPRSTCQSFEPPETPVVKDSTIGGSPQPRPSVGAFNPGMEDILDSAMGTNWVPEEASGEASEIPVPQGTELSPSRPGGGSMQTEPARPSNFLSASSPLPASAKGQQPADVTGTALPRVGPVRPTGQDWNHTPQKTDHPSALLRDPPEPGSPRISSLRPQGLSNPSTLSAQPQLSRSHSSGSVLPLGELEGRRSTRDRRSPAEPEGGPASEGAARPLPRFNSVPLTDTGHERQSEGSFSPQLQESVFHLLVPSVILVLLAVGGLLFYRWRRRSHQEPQRADSPLEQPEGSPLTQDDRQVELPV"}}, "key": {"[1]": {"test_system": "HIV-1 infected macrophages", "test": "Cell Death ELISA for histone-associated DNA fragmentation after Imatinib alone", "type": "cell-based, human", "conditions": "Imatinib alone 24 or 120 hours, no exogenous TRAIL, five days after infection", "procedure": "ELISA for Caspase-3 cleavage (to active form) was obtained from Cell Signaling Technologies (Beverley Mass.). Briefly, 1.4×10^6 macrophages infected with WT and envelope-minus viruses were lysed according to the supplier's protocol, 1 hour after the addition of soluble recombinant Trail (100 ng ml-1). Protein content was determined by Bradford Assay (Bio-Rad, Hercules Calif.) and 220 μg of protein in 200 μl from each culture was assayed. ELISA for supernatant release of histone associated DNA fragments released after induced cell death (Roche, Nutley N.J.) was used to measure macrophage longevity. […] In some experiments an MTT assay (Sigma, St. Louis Mo.) was used to measure cell viability. Fluorescent detection of active caspases was performed by pre-treating cells with red-VAD-FMK and flow cytometry according to the manufacturer's protocol (EMD biosciences). For the measurement of apoptosis by Annexin V and propidium iodide staining in flow cytometry reagents were obtained from BioVision (Mountain View Calif.) and used according to the supplier's protocol."}, "[2]": {"test_system": "TRAIL-R1 expression on HIV-1 infected macrophages", "type": "cell-based, human"}, "[3]": {"conditions": "in vivo; cited from earlier work"}, "[4]": {"test_system": "Bcl-2, Mcl-1, BclXL, BimL, Bmf and cFLIP", "test": "Western blotting of pro- and anti-apoptotic proteins in the TRAIL signaling pathway", "type": "cell-based, human", "conditions": "HIV-1 LAI WT infected macrophages, 2 μM Imatinib 16 hours", "procedure": "FIG. 11 provides a set of six protein immunoblot images. […] Protein levels of Bcl-2, Mcl-1, BClxL, BimL, Bmf and cFLIP were determined by Western blotting.\nIt has been shown that envelope induces over-expression of anti-apoptotic genes, Mcl-1, Bfl-1, cIAP-1, cIAP-2 and XIAP, that function in preventing mitochondrial and caspase-mediated apoptosis by TRAIL (Salvesen and Duckett, 2002; Zhang & Fang, 2005; Han et al., 2006)."}, "HIV-1 LAI": {"test_system": "HIV-1 LAI", "test": "Virus production with increasing concentrations of TRAIL (reverse transcriptase)", "type": "cell-based, human", "conditions": "16 hours", "procedure": "(§1) FIG. 5. provides three graphs showing that cell viability and virus production in the presence of TRAIL requires an intact envelope gene and is augmented by M-CSF. Macrophage viability and virus production in the presence of increasing concentrations of TRAIL is shown in FIG. 5A and FIG. 5B, respectively. Four days after infection with pseudotyped HIV-1 LAI WT or Δenv viruses, macrophages were incubated with increasing concentrations of soluble TRAIL and cell viability (FIG. 5A) and virus production (FIG. 5B) determined after 16 hours by MTT assay and reverse transcriptase production, respectively. Activated CD8+ T cells suppress viral replication in macrophages via TRAIL (FIG. 5C). Macrophages were infected with pseudotyped wild-type or envelope-minus HIV-1 LAI variants and monitored for virus production in a 24 hour period after incubation with Anti-CD3/CD28 stimulated autologous CD8+ TRAIL+T lymphocytes for 4 hours. Macrophages were pre-treated for 16 hours with M-CSF neutralizing antibody or isotype control and T cells were preincubated with recombinant TRAIL-R1 or control receptor (5 μg·ml-1) for 1 hour.\nThe differential sensitivity of wild type and envelope minus HIV-1 infected macrophages to TRAIL-mediated cell killing correlated with the concentration of TRAIL required to impact cell viability and virus production. […]"}, "[5]": {"test_system": "HIV-1 infected macrophages", "test": "Apoptosis by Annexin V and propidium iodide staining and flow cytometry", "type": "cell-based, human", "conditions": "TRAIL exposure without Imatinib treatment"}, "[6]": {"test_system": "HIV-1 infected macrophages", "test": "TRAIL-mediated apoptosis by ELISA for active (cleaved) Caspase 3", "type": "cell-based, human", "conditions": "HIV-1 WT infected macrophages, Day 2", "procedure": "(§2) Macrophages were infected with pseudotyped wild-type or envelope-minus HIV-1 LAI variants and monitored for virus production (FIG. 4A). At 8 days post infection, cultures were incubated with soluble TRAIL (100 ng·ml-1) and apoptosis determined by ELISA for active (cleaved) Caspase 3. […] Macrophage cultures, equally infected with pseudotyped HIV-1 LAI WT or Δenv viruses or mock infected, were examined by phase contrast microscopy after incubation with 100 ng/ml TRAIL (1 hour treatment with TRAIL followed by 5 hours incubation after removal of TRAIL). […] Eight days after infection with pseudotyped HIV-1 LAI WT or Δenv viruses, macrophages were incubated with soluble TRAIL (100 ng·ml-1) and percentage of viable cells remaining extrapolated from the level of cell death determined from ELISA. Macrophage half-life was calculated from the linear regression slope and expressed in hours+/−SD.\nRelationship of apoptosis by TRAIL, M-CSF release and TRAIL-R1 expression in macrophages infected with pseudotyped wild type or envelope minus HIV-1 HSA viruses. In FIG. 6A, M-CSF release as a function of time was determined by ELISA. In FIG. 6B, TRAIL-R1 expression as a function of time was measured by flow cytometry. In FIG. 6C, TRAIL-mediated apoptosis in macrophages was analyzed by ELISA for active (cleaved) Caspase 3 in parallel cultures during the infection (Error bars, SD). […]"}, "[7]": {"test_system": "HIV-1 infected macrophages", "test": "Macrophage half-life in the presence of TRAIL (cell death ELISA)", "type": "cell-based, human", "conditions": "soluble TRAIL 100 ng·ml-1", "procedure": "as §2\nMacrophages are a long-lived reservoir of HIV in vivo and a source of viral rebound (reviewed in Stevenson, 2003). The evasion of apoptosis in other human viral infections contributes to viral persistence and enables the infected cell to survive in the face of a hostile microenvironment (Raftery et al., 2001; Secchiero et al., 2001; Tollefson et al. 1998; Tollefson et al. 2001). Therefore we determined the half-life of HIV-1 infected macrophages in the presence of a concentration of TRAIL capable of inducing apoptosis. […] Thus resistance to TRAIL can potentially provide a significant advantage to macrophages infected by HIV-1.\nELISA for Caspase-3 cleavage (to active form) was obtained from Cell Signaling Technologies (Beverley Mass.). Briefly, 1.4×10^6 macrophages infected with WT and envelope-minus viruses were lysed according to the supplier's protocol, 1 hour after the addition of soluble recombinant Trail (100 ng ml-1). Protein content was determined by Bradford Assay (Bio-Rad, Hercules Calif.) and 220 μg of protein in 200 μl from each culture was assayed. […]"}, "[8]": {"test_system": "HIV-1 LAI infected macrophages", "test": "Macrophage viability with increasing concentrations of TRAIL (MTT assay)", "type": "cell-based, human", "conditions": "16 hours", "procedure": "as §1, with “hour. […]” for “hour.”\nELISA for Caspase-3 cleavage (to active form) was obtained from Cell Signaling Technologies (Beverley Mass.). […] Protein content was determined by Bradford Assay (Bio-Rad, Hercules Calif.) and 220 μg of protein in 200 μl from each culture was assayed. […]"}, "[9]": {"conditions": "macrophages infected with pseudotyped HIV-1 LAI Δenv"}, "[10]": {"conditions": "macrophages infected with pseudotyped wild type HIV-1 LAI"}}, "note": "“Also recorded” adds a separate entry of the source. Where a name gives a salt, the structure may show the parent alone.", "data": [{"molecule": "Cc1ccc(NC(=O)c2ccc(CN3CCN(C)CC3)cc2)cc1Nc1nccc(-c2cccnc2)n1", "note": "[Imatinib, Imatinib mesylate]", "values": [{"measurement": "apoptosis (histone-associated DNA fragmentation) of wild-type-infected macrophages", "setting": "[1]", "result": "results in apoptosis of wild-type-infected macrophages; also recorded: removed the requirement for exogenous TRAIL"}, {"measurement": "TRAIL-R1 expression on uninfected macrophages", "setting": "[2]; uninfected macrophages, also those in cultures of infected cells, Imatinib 16 hours", "result": "did not promote TRAIL-R1 expression"}, {"measurement": "bioavailability to the brain", "setting": "[3]", "result": "poor bioavailability to the brain"}, {"measurement": "expression of pro- and anti-apoptotic proteins", "setting": "[4]", "result": "cause a shift in the expression of the proteins in favor of cellular apoptosis"}]}, {"molecule": "B1", "values": [{"measurement": "TRAIL concentration effecting ~50% reduction in virus output", "setting": "HIV-1 LAI; [9]", "result": 3, "unit": "ng/mL"}, {"measurement": "TRAIL concentration required for ~50% reduction in virus output", "setting": "HIV-1 LAI; [10]", "result": "> 50", "unit": "ng/mL"}, {"measurement": "apoptosis of infected macrophages", "setting": "[5]", "result": 3.9, "unit": "%"}, {"measurement": "TRAIL-induced active caspase 3 elevation", "setting": "[6]", "result": 3, "unit": "fold"}, {"measurement": "macrophage half-life in the presence of TRAIL", "setting": "[7]; HIV-1 Δenv infected macrophages", "result": "around 36 hours"}, {"measurement": "macrophage half-life in the presence of TRAIL", "setting": "[7]; mock infected cultures", "result": 81, "unit": "h"}, {"measurement": "macrophage half-life in the presence of TRAIL", "setting": "[7]; wild type infected cultures", "result": 110, "unit": "h"}, {"measurement": "TRAIL concentration effecting ~50% reduction in cell viability", "setting": "[8]; [9]", "result": 3, "unit": "ng/mL"}, {"measurement": "TRAIL concentration required for ~50% reduction in viability", "setting": "[8]; [10]", "result": "> 30", "unit": "ng/mL"}]}, {"molecule": "B2", "values": [{"measurement": "TRAIL-R1 expression", "setting": "[2]; macrophages infected with an envelope defective virus, exogenous M-CSF 16 hours", "result": "down-regulated TRAIL-R1"}]}]}
